Biological target: native CA lattice tubes (HIV-1, UniProt P12493 133-363)
Experiment: filter binding

B1: CA15-2 (1-104) (structured_RNA)
RNA: GGAAGAAGAGAAUCAUACACAAGAUCGACGUACCUCAGGGUGGUGUAUGACUGAGGUGAAGACUGUGAACCAUGGCAUGCGGGCAUAAGGUAGGUAAGUCCAUA
binding result: binds

From publication PMC8860611
